± gives the uncertainty stated by the source.

A short description of the data set: abundance fitness (aPCA) (normalised: wild type 0, dead -1); higher = more abundant; growth selection in yeast, the domain comes from the species named. As to conditions: Homo sapiens.
As for “E3 ubiquitin-protein ligase NEDD4-like P193C, Q96PU5”, the abundance fitness was 0.042 ± 0.095.

For “E3 ubiquitin-protein ligase NEDD4-like P193D, Q96PU5”, the abundance fitness was -0.131 ± 0.076. The result for “E3 ubiquitin-protein ligase NEDD4-like P193E, Q96PU5” reads -0.07 ± 0.087; that for “E3 ubiquitin-protein ligase NEDD4-like P193F, Q96PU5”, -0.339 ± 0.11. Then “E3 ubiquitin-protein ligase NEDD4-like P193G, Q96PU5”, with -0.086 ± 0.058. The result for “E3 ubiquitin-protein ligase NEDD4-like P193H, Q96PU5” reads -0.058 ± 0.11; that for “E3 ubiquitin-protein ligase NEDD4-like P193I, Q96PU5”, -0.079 ± 0.052. “E3 ubiquitin-protein ligase NEDD4-like P193K, Q96PU5”: the abundance fitness was -0.033 ± 0.069. Then “E3 ubiquitin-protein ligase NEDD4-like P193L, Q96PU5”, with -0.103 ± 0.055; and “E3 ubiquitin-protein ligase NEDD4-like P193N, Q96PU5”, with -0.25 ± 0.11; and “E3 ubiquitin-protein ligase NEDD4-like P193Q, Q96PU5”, with -0.21 ± 0.098. “E3 ubiquitin-protein ligase NEDD4-like P193R, Q96PU5” registered an abundance fitness of 0.025 ± 0.055. Then “E3 ubiquitin-protein ligase NEDD4-like P193S, Q96PU5”, with -0.042 ± 0.063; and “E3 ubiquitin-protein ligase NEDD4-like P193T, Q96PU5”, with -0.177 ± 0.075; and “E3 ubiquitin-protein ligase NEDD4-like P193V, Q96PU5”, with -0.003 ± 0.054.

On to “E3 ubiquitin-protein ligase NEDD4-like P193W, Q96PU5”, for which the abundance fitness is -0.359 ± 0.067. Then “E3 ubiquitin-protein ligase NEDD4-like P193Y, Q96PU5”, with -0.057 ± 0.062; and “E3 ubiquitin-protein ligase NEDD4-like P194A, Q96PU5”, with -0.057 ± 0.066; and “E3 ubiquitin-protein ligase NEDD4-like P194C, Q96PU5”, with -0.147 ± 0.076. The result for “E3 ubiquitin-protein ligase NEDD4-like P194D, Q96PU5” reads -0.008 ± 0.09; that for “E3 ubiquitin-protein ligase NEDD4-like P194E, Q96PU5”, -0.103 ± 0.072; that for “E3 ubiquitin-protein ligase NEDD4-like P194F, Q96PU5”, -0.443 ± 0.084. On to “E3 ubiquitin-protein ligase NEDD4-like P194G, Q96PU5”, for which the abundance fitness was -0.05 ± 0.059. On to “E3 ubiquitin-protein ligase NEDD4-like P194H, Q96PU5”, for which the abundance fitness was -0.094 ± 0.073. “E3 ubiquitin-protein ligase NEDD4-like P194I, Q96PU5”: the abundance fitness was -0.294 ± 0.1. The result for “E3 ubiquitin-protein ligase NEDD4-like P194K, Q96PU5” reads 0.071 ± 0.063; that for “E3 ubiquitin-protein ligase NEDD4-like P194L, Q96PU5”, -0.094 ± 0.054. The result for “E3 ubiquitin-protein ligase NEDD4-like P194M, Q96PU5” reads 0.013 ± 0.072; that for “E3 ubiquitin-protein ligase NEDD4-like P194N, Q96PU5”, -0.304 ± 0.11. Then “E3 ubiquitin-protein ligase NEDD4-like P194Q, Q96PU5”, with 0.061 ± 0.079. In turn, “E3 ubiquitin-protein ligase NEDD4-like P194R, Q96PU5” displayed an abundance fitness of 0.048 ± 0.065.

For “E3 ubiquitin-protein ligase NEDD4-like P194S, Q96PU5”, the abundance fitness is -0.06 ± 0.065. The result for “E3 ubiquitin-protein ligase NEDD4-like P194T, Q96PU5” reads -0.107 ± 0.07; that for “E3 ubiquitin-protein ligase NEDD4-like P194V, Q96PU5”, -0.002 ± 0.058. The result for “E3 ubiquitin-protein ligase NEDD4-like P194W, Q96PU5” reads -0.327 ± 0.076; that for “E3 ubiquitin-protein ligase NEDD4-like P194Y, Q96PU5”, -0.279 ± 0.093; that for “E3 ubiquitin-protein ligase NEDD4-like P196A, Q96PU5”, -0.01 ± 0.07. Then “E3 ubiquitin-protein ligase NEDD4-like P196D, Q96PU5”, with -0.231 ± 0.08. For “E3 ubiquitin-protein ligase NEDD4-like P196F, Q96PU5”, the abundance fitness is -0.567 ± 0.098.

In the case of “E3 ubiquitin-protein ligase NEDD4-like P196H, Q96PU5”, the abundance fitness is -0.413 ± 0.097. The result for “E3 ubiquitin-protein ligase NEDD4-like P196K, Q96PU5” reads -0.402 ± 0.11.

Regarding “E3 ubiquitin-protein ligase NEDD4-like P196L, Q96PU5”, the abundance fitness is -0.126 ± 0.078. The result for “E3 ubiquitin-protein ligase NEDD4-like P196M, Q96PU5” reads -0.011 ± 0.071. Take “E3 ubiquitin-protein ligase NEDD4-like P196N, Q96PU5”: the abundance fitness is -0.228 ± 0.11. Then “E3 ubiquitin-protein ligase NEDD4-like P196Q, Q96PU5”, with -0.217 ± 0.073; and “E3 ubiquitin-protein ligase NEDD4-like P196R, Q96PU5”, with -0.106 ± 0.063; and “E3 ubiquitin-protein ligase NEDD4-like P196S, Q96PU5”, with -0.138 ± 0.068.

For “E3 ubiquitin-protein ligase NEDD4-like P196T, Q96PU5”, the abundance fitness was -0.239 ± 0.083. The result for “E3 ubiquitin-protein ligase NEDD4-like P196V, Q96PU5” reads -0.184 ± 0.056; that for “E3 ubiquitin-protein ligase NEDD4-like P196W, Q96PU5”, -0.416 ± 0.057; that for “E3 ubiquitin-protein ligase NEDD4-like P196Y, Q96PU5”, -0.384 ± 0.11.

In the case of “E3 ubiquitin-protein ligase NEDD4-like P197A, Q96PU5”, the abundance fitness was found to be 0.022 ± 0.071. The result for “E3 ubiquitin-protein ligase NEDD4-like P197C, Q96PU5” reads -0.249 ± 0.095; that for “E3 ubiquitin-protein ligase NEDD4-like P197D, Q96PU5”, -0.25 ± 0.11; that for “E3 ubiquitin-protein ligase NEDD4-like P197E, Q96PU5”, 0.031 ± 0.074. Then “E3 ubiquitin-protein ligase NEDD4-like P197F, Q96PU5”, with -0.006 ± 0.061; and “E3 ubiquitin-protein ligase NEDD4-like P197H, Q96PU5”, with -0.097 ± 0.085. The result for “E3 ubiquitin-protein ligase NEDD4-like P197I, Q96PU5” reads 0.18 ± 0.11; that for “E3 ubiquitin-protein ligase NEDD4-like P197K, Q96PU5”, 0.267 ± 0.094.

Take “E3 ubiquitin-protein ligase NEDD4-like P197L, Q96PU5”: the abundance fitness amounted to 0.048 ± 0.075. “E3 ubiquitin-protein ligase NEDD4-like P197M, Q96PU5” had an abundance fitness of 0.006 ± 0.076. With “E3 ubiquitin-protein ligase NEDD4-like P197Q, Q96PU5”, the abundance fitness is -0.081 ± 0.099. As for “E3 ubiquitin-protein ligase NEDD4-like P197R, Q96PU5”, the abundance fitness was determined as 0.093 ± 0.057. The result for “E3 ubiquitin-protein ligase NEDD4-like P197S, Q96PU5” reads 0.073 ± 0.06; that for “E3 ubiquitin-protein ligase NEDD4-like P197T, Q96PU5”, -0.017 ± 0.087.

As for “E3 ubiquitin-protein ligase NEDD4-like P197V, Q96PU5”, the abundance fitness was -0.009 ± 0.06. The result for “E3 ubiquitin-protein ligase NEDD4-like P197W, Q96PU5” reads -0.237 ± 0.089; that for “E3 ubiquitin-protein ligase NEDD4-like P197Y, Q96PU5”, -0.058 ± 0.08; that for “E3 ubiquitin-protein ligase NEDD4-like P224A, Q96PU5”, -0.765 ± 0.08.

For the substance “E3 ubiquitin-protein ligase NEDD4-like P224C, Q96PU5”, the abundance fitness is -0.772 ± 0.11. Turning to “E3 ubiquitin-protein ligase NEDD4-like P224D, Q96PU5”, the abundance fitness was -0.772 ± 0.14.

For the substance “E3 ubiquitin-protein ligase NEDD4-like P224E, Q96PU5”, the abundance fitness is -0.612 ± 0.086. The result for “E3 ubiquitin-protein ligase NEDD4-like P224F, Q96PU5” reads -1.1 ± 0.21; that for “E3 ubiquitin-protein ligase NEDD4-like P224G, Q96PU5”, -0.734 ± 0.065; that for “E3 ubiquitin-protein ligase NEDD4-like P224H, Q96PU5”, -0.694 ± 0.17. The result for “E3 ubiquitin-protein ligase NEDD4-like P224I, Q96PU5” reads -0.877 ± 0.18; that for “E3 ubiquitin-protein ligase NEDD4-like P224K, Q96PU5”, -0.552 ± 0.089; that for “E3 ubiquitin-protein ligase NEDD4-like P224L, Q96PU5”, -0.93 ± 0.06. Then “E3 ubiquitin-protein ligase NEDD4-like P224M, Q96PU5”, with -0.796 ± 0.11. “E3 ubiquitin-protein ligase NEDD4-like P224N, Q96PU5”: the abundance fitness was -1.15 ± 0.18. Consider “E3 ubiquitin-protein ligase NEDD4-like P224R, Q96PU5”, for which the abundance fitness was -0.94 ± 0.056. The result for “E3 ubiquitin-protein ligase NEDD4-like P224S, Q96PU5” reads -0.711 ± 0.059; that for “E3 ubiquitin-protein ligase NEDD4-like P224T, Q96PU5”, -0.828 ± 0.11. The result for “E3 ubiquitin-protein ligase NEDD4-like P224V, Q96PU5” reads -1.01 ± 0.086.

For the origin of these results see the Human Domainome abundance scans (Beltran et al. 2025).
